Source: article PMC6056499 (2018)

B1: mature human FGF21 polypeptide fused with the human Fc fragment at the N-terminus (Fc-FGF21), wild type (Fc fusion)
chain: HPIPDSSPLLQFGGQVRQRYLYTDDAQQTEAHLEIREDGTVGGAADQSPESLLQLKALKPGVIQILGVKTSRFLCQRPDGALYGSLHFDPEACSFRELLLEDGYNVYQSEAHGLPLHLPGNKSPHRDPAPRGPARFLPLPGLPPALPEPPGILAPQPPDVGSSDPLSMVGPSQGRSPSYAS
B2: mature human FGF21 (ligand)
chain: HPIPDSSPLLQFGGQVRQRYLYTDDAQQTEAHLEIREDGTVGGAADQSPESLLQLKALKPGVIQILGVKTSRFLCQRPDGALYGSLHFDPEACSFRELLLEDGYNVYQSEAHGLPLHLPGNKSPHRDPAPRGPARFLPLPGLPPALPEPPGILAPQPPDVGSSDPLSMVGPSQGRSPSYAS
modifications: biotin (EZ-Link Sulfo-NHS-LC-Biotin) in the solid-phase binding assay; biotinylated as the labelled ligand in AlphaScreen

Key:
[1] = biological target: T1, human β-Klotho extracellular domain (aa1–992) fused with a 6 × His tag at the C-terminus (human, UniProt Q86Z14 1-992, biotin (EZ-Link Sulfo-NHS-LC-Biotin) in the bio-layer interferometry); test: competition with FGF19 (AlphaScreen)
[2] = biological target: T1, human β-Klotho extracellular domain …; test: competition with FGF21 (AlphaScreen)
[3] = biological target: T1, human β-Klotho extracellular domain …; test: ELISA; solid-phase binding assay
[4] = biological target: T1, human β-Klotho extracellular domain …; test: BLI
[5] = biological target: T1, human β-Klotho extracellular domain …; test: AlphaScreen, competition with FGF19
[6] = biological target: T1, human β-Klotho extracellular domain …; test: AlphaScreen, competition with FGF21
[7] = biological target: T1, human β-Klotho extracellular domain …; test: AlphaScreen, biotinylated FGF

T1 sequence (Q86Z14 53-992): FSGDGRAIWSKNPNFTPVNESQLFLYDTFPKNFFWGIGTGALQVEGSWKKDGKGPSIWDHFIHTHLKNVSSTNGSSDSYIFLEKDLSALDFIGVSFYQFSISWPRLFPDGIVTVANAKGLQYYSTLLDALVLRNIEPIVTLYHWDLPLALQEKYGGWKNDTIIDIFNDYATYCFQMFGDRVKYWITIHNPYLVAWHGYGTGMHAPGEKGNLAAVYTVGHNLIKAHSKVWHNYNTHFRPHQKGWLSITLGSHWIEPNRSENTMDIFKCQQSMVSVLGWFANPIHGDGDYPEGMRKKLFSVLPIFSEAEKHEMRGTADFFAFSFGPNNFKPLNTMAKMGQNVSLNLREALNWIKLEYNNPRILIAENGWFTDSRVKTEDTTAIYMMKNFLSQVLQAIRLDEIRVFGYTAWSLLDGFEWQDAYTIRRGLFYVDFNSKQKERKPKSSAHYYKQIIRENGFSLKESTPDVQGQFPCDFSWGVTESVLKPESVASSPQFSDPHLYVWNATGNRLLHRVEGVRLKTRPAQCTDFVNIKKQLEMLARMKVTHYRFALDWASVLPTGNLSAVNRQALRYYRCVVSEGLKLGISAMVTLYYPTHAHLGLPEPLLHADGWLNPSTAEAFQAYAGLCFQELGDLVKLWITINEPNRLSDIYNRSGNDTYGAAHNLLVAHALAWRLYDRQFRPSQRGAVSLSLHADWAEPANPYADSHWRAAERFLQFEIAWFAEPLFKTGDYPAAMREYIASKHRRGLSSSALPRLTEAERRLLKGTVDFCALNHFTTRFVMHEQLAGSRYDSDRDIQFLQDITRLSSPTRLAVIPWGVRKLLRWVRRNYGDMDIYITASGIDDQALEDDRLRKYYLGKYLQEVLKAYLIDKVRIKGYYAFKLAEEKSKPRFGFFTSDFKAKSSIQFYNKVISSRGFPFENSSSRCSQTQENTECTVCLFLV

Binder | IC50 [1] [nM] | IC50 [2] [nM] | other results
PQPPDVGSSDPLSMVAPSQGRSPSYAS [FGF21 183-209 198G-A] | 2.6 | 6 | –
PQPPDAGSSDPLSMVGPSQGRSPSYAS [FGF21 183-209 188V-A] | 5.2 | – | –
B1 | – | – | EC50 [3]: 0.6 nM; Kd [4]: 1.36 nM
SDMFSSPLETDSMDPFGLVTGLEAVRSPSFEK [FGF19 C-terminal peptide, WT FGF19^185–216] | – | – | IC50 [5]: 46.7 nM; IC50 [6]: 346 nM
PQPPDVGSSDPLSMVGPSQGASPSYAS [FGF21 183-209 203R-A] | 0.28 | – | –
PQPPDVGSSDPLSMVGPSQGRSPSYAS [FGF21 183-209] | 0.52 | 2.1 | –
B2 | – | – | EC50 [7]: 2.81 nM; IC50 [5]: 5.7 nM; IC50 [6]: 23.1 nM; Kd [4]: 5.17 nM
AQPPDVGSSDPLSMVGPSQGRSPSYAS [FGF21 183-209 183P-A] | 1 | 4.5 | –
PQPPDVGSSDALSMVGPSQGRSPSYAS [FGF21 183-209 193P-A] | 5.5 | – | –
